Test results taken from the supplement of paper PMC10567573.

B1: ZER1 (parent)
chain: PILRLLPQGISPVSQHWATWALYN

Variants of: B1
Experiment: protein stability index of a GFP-peptide fusion (GPS, HEK-293T) (PSI 1-6); higher = more stable
Conditions: c terminus: a fixed tail appended
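Note: lentivirally expressed fusions sorted by FACS into six bins by GFP to DsRed ratio, PSI derived from sequencing read proportions per bin multiplied by bin number.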

Variant	protein stability index
PILRLLPQGISPVSQHWATWALGN	2.11
PILRLLPQGISPVSQHWATWALKN	1.92
PILRLLPQGISPVSQHWATWALRN	1.17
PILRLLPQGISPVSQHWATWALPN	1.54
PILRLLPQGISPVSQHWATWALVN	3.73
PILRLLPQGISPVSQHWATWALSN	1.66
PILRLLPQGISPVSQHWATWALEN	1.8
PILRLLPQGISPVSQHWATWALDN	2
PILRLLPQGISPVSQHWATWALIN	3.22
PILRLLPQGISPVSQHWATWALHN	3.01
PILRLLPQGISPVSQHWATWALNN	2.92
PILRLLPQGISPVSQHWATWALWN	4.62
PILRLLPQGISPVSQHWETWALYN	2.82
PILRLLPQGISPVSQHWHTWALYN	2.94
PILRLLPQGISPVSQHWNTWALYN	3.82
PILRLLPQGISPVSQHWITWALYN	1.83
PILRLLPQGISPVSQHWKTWALYN	2.89
PILRLLPQGISPVSQHWRTWALYN	2.58
PILRLLPQGISPVSQHWTTWALYN	3.18
PILRLLPQGISPVSQHWGTWALYN	2.24
PILRLLPQGISPVSQHWCTWALYN	1.74
PILRLLPQGISPVSQHWLTWALYN	2.27
PILRLLPQGISPVSQHWYTWALYN	4.06
PILRLLPQGISPVSQHWMTWALYN	2.28

Variant	protein stability index
PILRLLPQGISPVSQHWATQALYN	1.47
PILRLLPQGISPVSQHWATIALYN	4.55
PILRLLPQGISPVSQHWATHALYN	2.61
PILRLLPQGISPVSQHWATFALYN	3.5
PILRLLPQGISPVSQHWATGALYN	1.37
PILRLLPQGISPVSQHWATRALYN	1.64
PILRLLPQGISPVSQHWATPALYN	2.79
PILRLLPQGISPVSQHWATKALYN	1.28
PILRLLPQGISPVSQHWATSALYN	2.41
PILRLLPQGISPVSQHWATAALYN	2.62
PILRLLPQGISPVSQHWATEALYN	1.58
PILRLLPQGISPVSQHWATNALYN	2.09
PILRLLPQGISPVSQHWATYALYN	2.5
PILRLLPQGISPVSQHWATMALYN	3.46
PILRLLPQGISPVSQHWATTALYN	3.72
PILRLLPQGISPVSQHWATDALYN	2.6
PILRLLPQGISPVSQHWATCALYN	3.55
PILRLLPQGISPVSQHWAKWALYN	2.3
PILRLLPQGISPVSQHWAPWALYN	2.12
PILRLLPQGISPVSQHWADWALYN	2.33
PILRLLPQGISPVSQHWAAWALYN	2.69
PILRLLPQGISPVSQHWAGWALYN	1.97
PILRLLPQGISPVSQHWATWALYA	2.09
PILRLLPQGISPVSQHWATWALYH	2.93

Variant	protein stability index
PILRLLPQGISPVSQHWATWALYD	3.49
PILRLLPQGISPVSQHWATWASYN	1.71
PILRLLPQGISPVSQHWATWARYN	3.48
PILRLLPQGISPVSQHWATWAQYN	3.18
PILRLLPQGISPVSQHWATWAWYN	4.02
PILRLLPQGISPVSQHWATWANYN	1.88
PILRLLPQGISPVSQHWATWAHYN	1.58
PILRLLPQGISPVSQHWATWAPYN	1.57
PILRLLPQGISPVSQHWATWAYYN	2.83
PILRLLPQGISPVSQHWATWAGYN	2.3
PILRLLPQGISPVSQHWATWADYN	2.02
PILRLLPQGISPVSQHWATWAAYN	3.32
PILRLLPQGISPVSQHWATWAKYN	1.52
PILRLLPQGISPVSQHWATWAEYN	1.58
PILRLLPQGISPVSQHWATWWLYN	2.29
PILRLLPQGISPVSQHWATWSLYN	2.6
PILRLLPQGISPVSQHWATWFLYN	2.7
PILRLLPQGISPVSQHWATWYLYN	4.95
PILRLLPQGISPVSQHWATWDLYN	2.79
PILRLLPQGISPVSQHWATWLLYN	2.38
PILRLLPQGISPVSQHWATWELYN	2.6
PILRLLPQGISPVSQHWATWMLYN	3.29
PILRLLPQGISPVSQHWATWNLYN	1.76
PILRLLPQGISPVSQHWATWCLYN	2.69

Variant	protein stability index
PILRLLPQGISPVSQHWATWVLYN	3.96
PILRLLPQGISPVSQHWATWRLYN	1
PILRLLPQGISPVSQHWATWKLYN	2.07
PILRLLPQGISPVSQHWATWPLYN	2.65
PILRLLPQGISPVSQHWATWTLYN	2.57
PILRLLPQGISPVSQHWATWILYN	3.15
PILRLLPQGISPVSQHWATWQLYN	3.72
PILRLLPQGISPVSQHGATWALYN	1.93
PILRLLPQGISPVSQHHATWALYN	1.57
PILRLLPQGISPVSQHVATWALYN	2.59
PILRLLPQGISPVSQHIATWALYN	3.9
PILRLLPQGISPVSQHQATWALYN	3.2
PILRLLPQGISPVSQHLATWALYN	4.01
PILRLLPQGISPVSQHNATWALYN	1.83
PILRLLPQGISPVSQHRATWALYN	3.1
PILRLLPQGISPVSQHYATWALYN	2.15
PILRLLPQGISPVSQHKATWALYN	2.16
PILRLLPQGISPVSQHSATWALYN	2.51
PILRLLPQGISPVSQHMATWALYN	3.18
PILRLLPQGISPVSQHPATWALYN	1.4
PILRLLPQGISPVSQHTATWALYN	1.73
PILRLLPQGISPVSQHFATWALYN	3.63
